From publication PMC5863359, “A novel acetyl xylan esterase enabling complete deacetylation of substituted xylans” (Biotechnology for Biofuels, 2018) come the findings set out here.

A word on the Km: it is the substrate concentration at which the rate is half of its maximum. In general, kcat refers to the number of substrate molecules converted per active site and unit of time at saturation. A word on the kcat/Km: it is the second-order rate constant that governs catalysis at low substrate concentration.

Substrate in series [1]: CC(=O)Oc1ccc([N+](=O)[O-])cc1
Put plainly: spectrophotometric hydrolysis assay (A410), Michaelis-Menten fit. The format is biochemical, Flavobacterium johnsoniae. The following applies: 50 mM HEPES pH 8.0, 30 °C. The source says: spectrophotometric hydrolysis assay (A410), Michaelis-Menten fit on FjoAcXE

Substrate in series [2]: CC(=O)Oc1ccc2c(C)cc(=O)oc2c1
Put plainly: spectrophotometric hydrolysis assay (A354), Michaelis-Menten fit. The class given is biochemical, Flavobacterium johnsoniae. The following applies: 50 mM HEPES pH 8.0, 10% DMSO, 30 °C. The text has this:
spectrophotometric hydrolysis assay (A354), Michaelis-Menten fit on FjoAcXE

B1: FjoAcXE (Flavobacterium johnsoniae UW101) (protein)
chain: GCTSNKALIKTGDKKEDQNWTGTWATAQMLVEPKNMPPEPGLAQNTLRQIIKVSLGGKQIRLRFSNLFSDQPAVLKSVSVANVTEAPAVDIKTQKILSFKGSPQVTLGADEVVYSDAFDFELQPGQLLAITIHYGEISSNVSGHPGSRTTSYILQGDHINNESFAGAVKTDHWYSIMGVDISSVKNESNVVCLGNSIIDGRGSGTNKQNRWTDILASRLNANKNTAHIGVLNLGIGGNCVVRGGLGPTALNRFDRDVLSQSGTKWLIILEGINDIGGIRKAEDASVTAKEIIEGYKVMIDKAHAKGIKVFGGTILPFEKSFYDAPFKQDARDIVNEWIRTKGNFDAVIDFDKAMASDVGSKTILPDMHDNDFLHPNEKGYQRMGETVDLDLFQ
notes: predicted signal peptide (residues 1-21) removed; N-terminal His6-tag (p15TV-L); codon-optimized synthetic gene, expressed in E. coli BL21(DE3) codon plus
On to B1, for which, in series [1], the Km was 900 ± 100 µM, the kcat came out at 121 ± 3 s⁻¹ and the kcat/Km worked out at 128000 M⁻¹ s⁻¹. Further, in series [2], the Michaelis-Menten constant (Km) is 800 ± 100 µM, the kcat stood at 95.1 ± 4.4 s⁻¹ and the kcat/Km was determined as 115000 M⁻¹ s⁻¹.
